Laboratory results as given in publication PMC10454580, “Exploring the Binding Affinity of the ARR2 GARP DNA Binding Domain via Comparative Methods”.

Experiments:
Details in all cases: protein: recombinant; tags: N-terminal 8xHis-MBP; label: 5' biotin on antisense strand (DPI-ELISA); 5' Alexa647 on antisense strand (FCS); unlabeled (MST); blunt
[1] = target: T1, His8-MBP-GARP2 (ARR2 GARP DNA-binding domain) (UniProt Q9ZWJ9 211-275); experiment: MST; thermophoresis 43/3; bounds 260.4-960.9; MST: PBS-T, 250 nM protein, 25 nM RED-tris-NTA, 40% MST power, 22-26 C; FCS: PBS, 25 C; qDPI-ELISA: TBS/TBS-T (20 mM Tris, 0.18 M NaCl, pH 7.5, 0.1% Tween-20)
T1 sequence: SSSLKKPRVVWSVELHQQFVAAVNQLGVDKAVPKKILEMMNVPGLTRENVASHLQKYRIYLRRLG

[2] = target: T1, His8-MBP-GARP2 (ARR2 GARP DNA-binding …); experiment: MST; inverse T-jump 6/5; bounds 471.3-1412.8; MST: PBS-T, 250 nM protein, 25 nM RED-tris-NTA, 40% MST power, 22-26 C; FCS: PBS, 25 C; qDPI-ELISA: TBS/TBS-T (20 mM Tris, 0.18 M NaCl, pH 7.5, 0.1% Tween-20)
[3] = target: T1, His8-MBP-GARP2 (ARR2 GARP DNA-binding …); experiment: MST; thermophoresis 41/3; bounds 250.9-787.3; MST: PBS-T, 250 nM protein, 25 nM RED-tris-NTA, 40% MST power, 22-26 C; FCS: PBS, 25 C; qDPI-ELISA: TBS/TBS-T (20 mM Tris, 0.18 M NaCl, pH 7.5, 0.1% Tween-20)
[4] = target: T1, His8-MBP-GARP2 (ARR2 GARP DNA-binding …); experiment: MST; thermophoresis 49/3; bounds 200.6-1912.2; MST: PBS-T, 250 nM protein, 25 nM RED-tris-NTA, 40% MST power, 22-26 C; FCS: PBS, 25 C; qDPI-ELISA: TBS/TBS-T (20 mM Tris, 0.18 M NaCl, pH 7.5, 0.1% Tween-20)
[5] = target: T1, His8-MBP-GARP2 (ARR2 GARP DNA-binding …); experiment: MST; thermophoresis 44/3; bounds 229.7-868.7; MST: PBS-T, 250 nM protein, 25 nM RED-tris-NTA, 40% MST power, 22-26 C; FCS: PBS, 25 C; qDPI-ELISA: TBS/TBS-T (20 mM Tris, 0.18 M NaCl, pH 7.5, 0.1% Tween-20)
[6] = target: T1, His8-MBP-GARP2 (ARR2 GARP DNA-binding …); experiment: MST; thermophoresis 42/3; bounds 259.5-988.2; MST: PBS-T, 250 nM protein, 25 nM RED-tris-NTA, 40% MST power, 22-26 C; FCS: PBS, 25 C; qDPI-ELISA: TBS/TBS-T (20 mM Tris, 0.18 M NaCl, pH 7.5, 0.1% Tween-20)
[7] = target: T1, His8-MBP-GARP2 (ARR2 GARP DNA-binding …); experiment: MST; thermophoresis 45/3; bounds 218.2-1077.2; MST: PBS-T, 250 nM protein, 25 nM RED-tris-NTA, 40% MST power, 22-26 C; FCS: PBS, 25 C; qDPI-ELISA: TBS/TBS-T (20 mM Tris, 0.18 M NaCl, pH 7.5, 0.1% Tween-20)
[8] = target: T1, His8-MBP-GARP2 (ARR2 GARP DNA-binding …); experiment: MST; back diffusion 8/7; bounds 61.0-374.4; MST: PBS-T, 250 nM protein, 25 nM RED-tris-NTA, 40% MST power, 22-26 C; FCS: PBS, 25 C; qDPI-ELISA: TBS/TBS-T (20 mM Tris, 0.18 M NaCl, pH 7.5, 0.1% Tween-20)
[9] = target: T1, His8-MBP-GARP2 (ARR2 GARP DNA-binding …); experiment: MST; thermophoresis 46/3; bounds 192.7-1173.8; MST: PBS-T, 250 nM protein, 25 nM RED-tris-NTA, 40% MST power, 22-26 C; FCS: PBS, 25 C; qDPI-ELISA: TBS/TBS-T (20 mM Tris, 0.18 M NaCl, pH 7.5, 0.1% Tween-20)
[10] = target: T1, His8-MBP-GARP2 (ARR2 GARP DNA-binding …); experiment: MST; T-jump region 2/1; ESP bounds 33.9-203.5; MST: PBS-T, 250 nM protein, 25 nM RED-tris-NTA, 40% MST power, 22-26 C; FCS: PBS, 25 C; qDPI-ELISA: TBS/TBS-T (20 mM Tris, 0.18 M NaCl, pH 7.5, 0.1% Tween-20)
[11] = target: T1, His8-MBP-GARP2 (ARR2 GARP DNA-binding …); experiment: MST; thermophoresis 47/3; bounds 202.0-1474.6; MST: PBS-T, 250 nM protein, 25 nM RED-tris-NTA, 40% MST power, 22-26 C; FCS: PBS, 25 C; qDPI-ELISA: TBS/TBS-T (20 mM Tris, 0.18 M NaCl, pH 7.5, 0.1% Tween-20)
[12] = target: T1, His8-MBP-GARP2 (ARR2 GARP DNA-binding …); experiment: MST; thermophoresis 48/3; bounds 240.8-1742.8; MST: PBS-T, 250 nM protein, 25 nM RED-tris-NTA, 40% MST power, 22-26 C; FCS: PBS, 25 C; qDPI-ELISA: TBS/TBS-T (20 mM Tris, 0.18 M NaCl, pH 7.5, 0.1% Tween-20)
[13] = target: T1, His8-MBP-GARP2 (ARR2 GARP DNA-binding …); experiment: MST; thermophoresis 410/3; bounds 211.1-2267.5; MST: PBS-T, 250 nM protein, 25 nM RED-tris-NTA, 40% MST power, 22-26 C; FCS: PBS, 25 C; qDPI-ELISA: TBS/TBS-T (20 mM Tris, 0.18 M NaCl, pH 7.5, 0.1% Tween-20)

B1: wtOligo (ARR5 promoter fragment) (dsDNA)
DNA 1: TTAACAATCTCAAAGATTTTGTAGATTGAAATACAAATCTTCTCT
DNA 2: AGAGAAGATTTGTATTTCAATCTACAAAATCTTTGAGATTGTTAA
How did the Kd [1] turn out when B1 was run?
The Kd was 520 ± 172 nM.

What about the Kd [2] of the same binder?
Its Kd is 826 ± 222 nM.

What about the Kd [3] of the same binder?
Its Kd is 456 ± 132 nM.

What about the Kd [4] of the same binder?
The Kd was 660 ± 419 nM.

And the Kd [5]?
The Kd was 462 ± 163 nM.

What about the Kd [6] of the same binder?
The Kd was 526 ± 178 nM.

What about the Kd [7] of the same binder?
Its Kd is 510 ± 212 nM.

And the Kd [8]?
The Kd was 166 ± 74.3 nM.

What about the Kd [9] of the same binder?
Its Kd is 506 ± 246 nM.

What about the Kd [10] of the same binder?
The Kd was 93.3 ± 40.3 nM.

What about the Kd [11] of the same binder?
Its Kd is 578 ± 317 nM.

And the Kd [12]?
The Kd was 679 ± 376 nM.

And the Kd [13]?
The Kd was 738 ± 505 nM.
